The results in this text go back to patent publication US20130108636A1.

In assay [1] the target is gp140Con-s. The assay can be described thus: SPR; target not given, taken from Example 5.
For assay [2], the target named is gp140Con-s. The assay can be described thus: SPR (Biacore X100), gp140 amine-coupled on a CM5 chip, single-cycle, monovalent model. A general note: Surface plasmon resonance follows binding to a sensor surface in real time, without labels.

The koff is the first-order rate constant of dissociation. Low readings indicate a long-lived complex, high ones a short-lived complex. One may read the kon as a measure of how fast the partners come together. A lower kon goes with slower complex formation. In the assay with gp140Con-s [1], mD1-CH2 (from UniProt P01730 26-124) registered a fold decrease of association rate constant compared to mD1 of 80 fold, a koff of 0.0009 s⁻¹ and an on-rate (kon) of 61000 M⁻¹ s⁻¹.

Usually Kd stands for a measure of binding affinity in units of concentration. A higher Kd goes with lower affinity. The substance “D1D2 (from UniProt P01730 26-203) (receptor)” yielded a dissociation constant Kd with gp140Con-s [2] of 7.8 nM. Besides, the koff with gp140Con-s [1] turned out to be 0.0013 s⁻¹.
